Measurements taken from publication PMC4670574 (2016).
Square brackets hold non-standard residues; d marks the D form. Ends that are not written are not given here. pT = C[C@@H](OP(=O)(O)O)[C@H](N)C(=O)O

Molecular target: T1, pCdc25C phosphopeptide (Homo sapiens)
T1 chain: EQPL[pT]PVTDL
Test: ITC

Kd: > 1 mM
B1: Pin1 isolated PPIase domain PPIase domain (protein)
chain: PARVRCSHLLVKHSQSRRPSSWRQEKITRTKEEALELINGYIQKIKSGEEDFESLASQFSDCSSAKARGDLGAFSRGQMQKPFEDASFALRTGEMSGPVFTDSGIHIILRTE
